Results published in patent US20170298096A1 (CANIMGUIDE THERAPEUTICS, published 2017).
No end group written: not given here.

T1: His-tagged P3028 (human, also: His-tag, terminus and sequence not given here)
T1 construct: in solution at 0.5 ug/mL over the peptide cards; found with anti-His-tag antibody and rabbit anti-mouse peroxidase (rampo); also called PGE73; not shown: His-tag
T1 peptide: VFDEFKPLVEEPQNLIK

B1: SEQ ID NO 373 (peptide)
peptide: KKLDTFFVKLSLTTER
B2: SEQ ID NO 390 (peptide)
peptide: KKLDTFFVKLSLFTEN
B3: SEQ ID NO 412 (peptide)
peptide: KGLDTFFVKLSLFTER
B4: SEQ ID NO 402 (peptide)
peptide: KNLDTFFVKLSLFTER
B5: SEQ ID NO 392 (peptide)
peptide: KKLDTFFVKLSLFTET
B6: SEQ ID NO 388 (peptide)
peptide: KKLDTFFVKLSLFTEF
B7: SEQ ID NO 424 (peptide)
peptide: KKLDTFEVKLSLFTER
B8: SEQ ID NO 385 (peptide)
peptide: KKLDTFFVKLSLFVER
B9: SEQ ID NO 434 (peptide)
peptide: KKLDTYFVKLSLFTER
B10: SEQ ID NO 425 (peptide)
peptide: KKLDTFWVKLSLFTER
B11: SEQ ID NO 407 (peptide)
peptide: KRLDTFFVKLSLFTER
B12: SEQ ID NO 387 (peptide)
peptide: KKLDTFFVKLSLFTDR
B13: SEQ ID NO 429 (peptide)
peptide: KKLDVFFVKLSLFTER
B14: SEQ ID NO 376 (peptide)
peptide: KKLDTFFVKLSLFFER
B15: SEQ ID NO 375 (peptide)
peptide: KKLDTFFVKLSLWTER
B16: SEQ ID NO 417 (peptide)
peptide: KMLDTFFVKLSLFTER
B17: SEQ ID NO 431 (peptide)
peptide: KKLDTFFVKLSGFTER
B18: SEQ ID NO 437 (peptide)
peptide: KKLDTFPVKLSLFTER
B19: SEQ ID NO 416 (peptide)
peptide: KKLDTFFIKLSLFTER
B20: SEQ ID NO 432 (peptide)
peptide: KKLDTFRVKLSLFTER
B21: SEQ ID NO 397 (peptide)
peptide: KKLDTFIVKLSLFTER
B22: SEQ ID NO 404 (peptide)
peptide: KKLDTFAVKLSLFTER
B23: SEQ ID NO 386 (peptide)
peptide: KKLDTFFVKLSLFWER
B24: SEQ ID NO 413 (peptide)
peptide: KKLTTFFVKLSLFTER
B25: SEQ ID NO 418 (peptide)
peptide: KHLDTFFVKLSLFTER
B26: SEQ ID NO 377 (peptide)
peptide: KKLDTFFVKLSLFGER
B27: SEQ ID NO 381 (peptide)
peptide: KKLDTFFVKLSLFMER
B28: SEQ ID NO 423 (peptide)
peptide: KKLMTFFVKLSLFTER
B29: SEQ ID NO 382 (peptide)
peptide: KKLDTFFVKLSLFNER
B30: SEQ ID NO 401 (peptide)
peptide: KKLDTSFVKLSLFTER
B31: SEQ ID NO 393 (peptide)
peptide: KKLDTFFVKLSLFTEY
B32: SEQ ID NO 389 (peptide)
peptide: KKLDTFFVKLSLFTEK
B33: SEQ ID NO 422 (peptide)
peptide: KKLDTFFVKLSFFTER
B34: SEQ ID NO 436 (peptide)
peptide: KKPDTFFVKLSLFTER
B35: SEQ ID NO 405 (peptide)
peptide: KPLDTFFVKLSLFTER
B36: SEQ ID NO 409 (peptide)
peptide: KKLDTFCVKLSLFTER
B37: SEQ ID NO 379 (peptide)
peptide: KKLDTFFVKLSLFIER
B38: SEQ ID NO 410 (peptide)
peptide: KKLDTQFVKLSLFTER
B39: SEQ ID NO 384 (peptide)
peptide: KKLDTFFVKLSLFSER
B40: SEQ ID NO 438 (peptide)
peptide: KKLDTFFVKLSKFTER
B41: SEQ ID NO 415 (peptide)
peptide: KKLDTFFVKLYLFTER
B42: SEQ ID NO 426 (peptide)
peptide: KKLFTFFVKLSLFTER
B43: SEQ ID NO 383 (peptide)
peptide: KKLDTFFVKLSLFPER
B44: SEQ ID NO 374 (peptide)
peptide: KKLDTFFVKLSLVTER
B45: SEQ ID NO 378 (peptide)
peptide: KKLDTFFVKLSLFHER
B46: SEQ ID NO 419 (peptide)
peptide: KKLDTFFVKLVLFTER
B47: SEQ ID NO 433 (peptide)
peptide: KKLDTFHVKLSLFTER
B48: SEQ ID NO 435 (peptide)
peptide: KKLPTFFVKLSLFTER
B49: SEQ ID NO 421 (peptide)
peptide: KFLDTFFVKLSLFTER
B50: SEQ ID NO 411 (peptide)
peptide: KKLDTLFVKLSLFTER
B51: SEQ ID NO 420 (peptide)
peptide: KKLDHFFVKLSLFTER
B52: SEQ ID NO 380 (peptide)
peptide: KKLDTFFVKLSLFLER

Target: T1, His-tagged P3028
Experiment: PEPSCAN chip ELISA, His-P3028 in solution;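 note: score is the raw OD at 405 nm from peroxidase colour with ABTS, imaged by CCD camera before and after staining, with wells showing air bubbles set to zero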

RAMPO Score	Binder
494 rampo score	B1
311 rampo score	B2
405 rampo score	B3
432 rampo score	B4
292 rampo score	B5
297 rampo score	B6
381 rampo score	B7
380 rampo score	B8
364 rampo score	B9
380 rampo score	B10
417 rampo score	B11
404 rampo score	B12
374 rampo score	B13
348 rampo score	B14
430 rampo score	B15
400 rampo score	B16
370 rampo score	B17
356 rampo score	B18
401 rampo score	B19
369 rampo score	B20
446 rampo score	B21
426 rampo score	B22
374 rampo score	B23
405 rampo score	B24
394 rampo score	B25
343 rampo score	B26

RAMPO Score	Binder
501 rampo score	B27
384 rampo score	B28
599 rampo score	B29
432 rampo score	B30
311 rampo score	B31
291 rampo score	B32
389 rampo score	B33
361 rampo score	B34
425 rampo score	B35
411 rampo score	B36
375 rampo score	B37
410 rampo score	B38
369 rampo score	B39
355 rampo score	B40
402 rampo score	B41
380 rampo score	B42
551 rampo score	B43
446 rampo score	B44
463 rampo score	B45
392 rampo score	B46
364 rampo score	B47
364 rampo score	B48
390 rampo score	B49
408 rampo score	B50
391 rampo score	B51
360 rampo score	B52
